Patent US10052415B2, “Tropoelastin for promoting endothelial cell adhesion or migration” (University of Utah Research Foundation, priority 2005, dated 2018)

How the values were obtained:
[1] = system: endothelial progenitor cells; test: Adhesion assay on coated stainless steel disks, endothelial progenitor cells; assay type: cell-based, human
Description: We conducted experiments to assess whether tropoelastin promoted the adhesion of endothelial progenitor cells. Tropoelastin was covalently conjugated to a stainless steel disk approximately 6 mm in diameter. As a control, anti-CD34 antibody (known to promote endothelial cell adhesion) was covalently conjugated to similar stainless steel disks. Endothelial progenitor cells were cultured with these coated disks, and adhesion of the cells to the coated disks was assayed.
Adhesion assays on 6 mm stainless steel disks (Orbus Medical Technologies, Ft Lauderdale, Fla.) pre-coated with anti-CD34 antibody, tropoelastin, coating vehicle, or uncoated metal were performed in a similar fashion as described above, with the following modifications: 48-well plates were used to hold the disks during the assay period to facilitate manipulation of the disks and twice the volume of cell suspension was applied (200 μl/well). Exemplary amounts of total protein covalently attached to each disk were approximately 100 micrograms. Post-adhesion, the wells were washed twice in dPBS, using a swirling motion to dislodge non-specifically adhered cells. […]

[2] = system: human embryonic kidney cells (HEK 293); test: Cell adhesion assay on coated culture plates, HEK 293 cells; assay type: cell-based; conditions: culture plates coated with 10 ug/ml protein; 0.1% BSA control
Description: Cells were plated on culture plates coated with either 0.1% BSA (as a control), 10 ug/ml fibronectin (FN), or 10 ug/ml recombinant tropoelastin, and assayed for adherence to the coated substrate.
96-well plates were coated in duplicate overnight at 4° C. with 10 μg/ml collagen, fibronectin, tropoelastin, or 0.1% bovine serum albumin (BSA). Cells were harvested with 0.25% trypsin/1 mM EDTA, washed three times in adhesion buffer (0.5% BSA in basal medium), suspended at a working density of 5×10^5/ml in adhesion buffer, and then allowed to recover for 1 h at 37° C. (5% CO2). For integrin-blocking assays, 25 μg/ml anti-integrin antibodies (Chemicon, Temecula, Calif.) or control IgG (Jackson ImmunoResearch Laboratories, Inc, West Grove, Pa.) were added to the cell suspension during the recovery period. During the cell recovery, the coated 96-well plates were washed twice in dPBS and blocked for 1 h at 25° C. in 5.0% BSA (dPBS). The blocking solution was removed, and the wells were washed twice in dPBS. Recovered cells were added to the coated wells in a volume of 100 μl per well and placed at 37° C. for 30 minutes (5% CO2). […] Readings represent the number of adherent cells/well (average six high powered 100× fields, three taken from each of two separate wells).

[3] = system: A2058 human melanoma cells; test: Boyden chamber migration assay, A2058 cells; assay type: cell-based; conditions: FIG. 5
Description: Briefly, 16 h before the assay, 70% confluent 75 cm^2 flasks of human melanoma A2058 cell (ATCC, passage 3-12) or human aortic endothelial cells (HAEC; Cambrex, passage 4-7) were kept in basal media (dMEM+0.1% BSA, or EBM-2+1% FCS, respectively). Cells were lifted with 0.25% Trypsin/1 mM EDTA, diluted in 0.5% BSA (dMEM) and washed 3 times in basal media (dMEM+0.1% BSA) or (EBM-2+0.1% FCS,) and recovered in suspension at working density (2×10^6/ml for A2058 or 1.5×10^6 HAEC) for 1 h at 37° C. (5% CO2). For migration-inhibition assays, the cells were preincubated during the recovery period for 30 minutes in 25 μg/ml anti-integrin antibodies (Chemicon, Temecula, Calif.) or control IgG (Jackson ImmunoResearch, Inc.). All migration assays were performed in triplicate in a 48-well Boyden chamber apparatus (NeuroProbe, Cabin John, Md.). The recovered cells were added to the bottom chambers in a volume of 30 μl. The wells were overlayed with an 8 μm-pore polycarbonate membrane (NeuroProbe, Cabin John, Md.) and coated with 100 μg/ml Rat tail collagen (Trevigen, Gaithersburg, Md.) for A2058 cells or acetylated 1% gelatin from porcine skin (Sigma, St. Louis, Mo.) for HAEC. The apparatus was assembled and stored inverted at 37° C. (5 CO2) for a 2 h adhesion-period. […] Readings represent the number of cells migrating through the membrane (the sum of two high power X 20 fields/well, averaged for each sextuplicate-well set).

B1: tropoelastin: recombinant human tropoelastin lacking native signal sequence, 10× His tag and Factor Xa site on N-terminus, 706 amino acid residues (SEQ ID NO: 4) (protein, listed as Homo sapiens)
chain: MGHHHHHHHHHHSSGGIEGRGGVPGAIPGGVPGGVFYPGAGLGALGGGALGPGGKPLKPVPGGLAGAGLGAGLGAFPAVTFPGALVPGGVADAAAAYKAAKAGAGLGGVPGVGGLGVSAGAVVPQPGAGVKPGKVPGVGLPGVYPGGVLPGARFPGVGVLPGVPTGAGVKPKAPGVGGAFAGIPGVGPFGGPQPGVPLGYPIKAPKLPGGYGLPYTTGKLPYGYGPGGVAGAAGKAGYPTGTGVGPQAAAAAAAKAAAKFGAGAAGVLPGVGGAGVPGVPGAIPGIGGIAGVGTPAAAAAAAAAAKAAKYGAAAGLVPGGPGFGPGVVGVPGAGVPGVGVPGAGIPVVPGAGIPGAAVPGVVSPEAAAKAAAKAAKYGARPGVGVGGIPTYGVGAGGFPGFGVGVGGIPGVAGVPGVGGVPGVGGVPGVGISPEAQAAAAAKAAKYGVGTPAAAAAKAAAKAAQFALLNLAGLVPGVGVAPGVGVAPGVGVAPGVGLAPGVGVAPGVGVAPGVGVAPGIGPGGVAAAAKSAAKVAAKAQLRAAAGLGAGIPGLGVGVGVPGLGVGAGVPGLGVGAGVPGFGAVPGALAAAKAAKYGAAVPGVLGGLGALGGVGIPGGVVGAGPAAAAAAAKAAAKAAQFGLVGAAGLGGLGVGGLGVPGVGGLGGIPPAAAAKAAKYGVAARPGFGLSPIFPGGACLGKACGRKRK
adhesion of endothelial progenitor cells to coated stainless steel disks ([1]; FIG. 7, protein covalently conjugated to 6 mm disk): promoted adhesion of human endothelial cells to the metal device | cell adhesion compared to polysaccharide-coated control disks or to bare metal disks ([1]; coated metal disks): significant increase in cell adhesion | adhesion of HEK 293 cells to the coated substrate [2]: do not adhere to tropoelastin | level of A2058 migration compared among tropoelastin and fragments [3]: promoted migration of A2058 cell at comparable levels
